Data set [1] concerns the molecule itself. Kind of data set: nonreducing capillary electrophoresis immunoassay (Simple Jess) + other: nonreducing SDS-PAGE with immunoblot; root lysates of p35S:APT1-GFP/apt1 plants after 4 mM H2O2 for 15 min to 6 h (also 1 dpi with F. oxysporum); DTT-free buffers, samples not heated, anti-GFP.
Data set [2] deals with the molecule itself. Kind of data set: nonreducing SDS-PAGE with immunoblot; 6 × His-APT1 proteins after Ni purification from E. coli, no reducing agent; Tris-Tricine SDS-PAGE system. (In general: Immunoblotting shows a protein as a band on a membrane.)
Data set [3] concerns the molecule itself. The experiment in a line: not stated; in vivo in M. truncatula under drought stress (Supplementary Fig. 2a).

“And” between values parts separate entries of the source, which are not always exact repeats. Equal entries are not always repeated.

Data on three proteins can be found in paper PMC10192129, “The thioesterase APT1 is a bidirectional-adjustment redox sensor” (Nature Communications, 2023).

B1: APT1-GFP fusion protein (p35S:APT1-GFP) in M. truncatula apt1 roots (enzyme)
chain: not shown
notes: acyl-protein thioesterase 1 (APT1) of Medicago truncatula, cDNA from ecotype A17; Detected with anti-GFP; source: transgenic M. truncatula apt1 mutant roots (p35S:APT1-GFP), in lysate
A word on the stoichiometry N: it is the number of molecules, sites or subunits per partner or assembly. On to B1, for which the “stoichiometry N” value in data set [1] is 4.

B2: 6 × His-APT1 fusion protein (acyl-protein thioesterase 1, Medicago truncatula) (enzyme)
chain: not shown
notes: acyl-protein thioesterase 1 (APT1, MtAPT1) of Medicago truncatula; cDNA amplified from ecotype A17; cysteines at C20, C22 and C37; The vector pET-30a(+) may add further vector-encoded residues (surmised); also called MtAPT1; pET-30a(+)-His-APT1
As for B2, the “stoichiometry N” value in data set [2] is 2 and 4.

B3: APT1 in M. truncatula under drought stress (enzyme)
chain: not shown
notes: acyl-protein thioesterase 1 (APT1) of Medicago truncatula; May be the same APT1-GFP as m9 (surmised); source: in vivo in M. truncatula
For B3, in data set [3], the “stoichiometry N” value worked out at 4.
